Assays:
GST-Asp1459-Arg1668-H = target: T1, GST-Asp1459-Arg1668-H
T1 chain: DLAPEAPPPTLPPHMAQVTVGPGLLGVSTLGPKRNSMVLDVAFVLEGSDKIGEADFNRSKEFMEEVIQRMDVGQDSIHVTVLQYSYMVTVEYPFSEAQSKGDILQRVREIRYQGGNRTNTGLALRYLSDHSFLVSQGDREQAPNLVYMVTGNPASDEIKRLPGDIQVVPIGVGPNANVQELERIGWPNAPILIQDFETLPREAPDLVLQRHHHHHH

GST-Asp1587-Arg1668-H = target: T2, GST-Asp1587-Arg1668-H
T2 chain: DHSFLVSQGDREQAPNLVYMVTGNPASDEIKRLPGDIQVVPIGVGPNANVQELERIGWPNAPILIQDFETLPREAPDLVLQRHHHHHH

GST-Asp1596-Arg1659-H = target: T3, GST-Asp1596-Arg1659-H
T3 chain: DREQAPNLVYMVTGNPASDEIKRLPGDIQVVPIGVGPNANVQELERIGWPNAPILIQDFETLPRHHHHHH

GST-Asp1596-Arg1668-H = target: T4, GST-Asp1596-Arg1668-H
T4 chain: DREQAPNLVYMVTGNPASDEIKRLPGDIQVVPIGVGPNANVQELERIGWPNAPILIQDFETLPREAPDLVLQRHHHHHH

GST-Glu1554-Arg1668-H = target: T5, GST-Glu1554-Arg1668-H
T5 chain: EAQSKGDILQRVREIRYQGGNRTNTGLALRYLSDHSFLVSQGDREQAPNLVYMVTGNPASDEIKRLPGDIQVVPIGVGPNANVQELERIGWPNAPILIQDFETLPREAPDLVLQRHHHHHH

B1: ADAMTS-13 (von Willebrand factor cleaving enzyme), as present in normal plasma (protein)
chain: AAGGILHLELLVAVGPDVFQAHQEDTERYVLTNLNIGAELLRDPSLGAQFRVHLVKMVILTEPEGAPNITANLTSSLLSVCGWSQTINPEDDTDPGHADLVLYITRFDLELPDGNRQVRGVTQLGGACSPTWSCLITEDTGFDLGVTIAHEIGHSFGLEHDGAPGSGCGPSGHVMASDGAAPRAGLAWSPCSRRQLLSLLSAGRARCVWDPPRPQPGSAGHPPDAQPGLYYSANEQCRVAFGPKAVACTFAREHLDMCQALSCHTDPLDQSSCSRLLVPLLDGTECGVEKWCSKGRCRSLVELTPIAAVHGRWSSWGPRSPCSRSCGGGVVTRRRQCNNPRPAFGGRACVGADLQAEMCNTQACEKTQLEFMSQQCARTDGQPLRSSPGGASFYHWGAAVPHSQGDALCRHMCRAIGESFIMKRGDSFLDGTRCMPSGPREDGTLSLCVSGSCRTFGCDGRMDSQQVWDRCQVCGGDNSTCSPRKGSFTAGRAREYVTFLTVTPNLTSVYIANHRPLFTHLAVRIGGRYVVAGKMSISPNTTYPSLLEDGRVEYRVALTEDRLPRLEEIRIWGPLQEDADIQVYRRYGEEYGNLTRPDITFTYFQPKPRQAWVWAAVRGPCSVSCGAGLRWVNYSCLDQARKELVETVQCQGSQQPPAWPEACVLEPCPPYWAVGDFGPCSASCGGGLRERPVRCVEAQGSLLKTLPPARCRAGAQQPAVALETCNPQPCPARWEVSEPSSCTSAGGAGLALENETCVPGADGLEAPVTEGPGSVDEKLPAPEPCVGMSCPPGWGHLDATSAGEKAPSPWGSIRTGAQAAHVWTPAAGSCSVSCGRGLMELRFLCMDSALRVPVQEELCGLASKPGSRREVCQAVPCPARWQYKLAACSVSCGRGVVRRILYCARAHGEDDGEEILLDTQCQGLPRPEPQEACSLEPCPPRWKVMSLGPCSASCGLGTARRSVACVQLDQGQDVEVDEAACAALVRPEASVPCLIADCTYRWHVGTWMECSVSCGDGIQRRRDTCLGPQAQAPVPADFCQHLPKPVTVRGCWAGPCVGQGTPSLVPHEEAAAPGRTTATPAGASLEWSQARGLLFSPAPQPRRLLPGPQENSVQSSACGRQHLEPTGTIDMRGPGQADCAVAIGRPLGEVVTLRVLESSLNCSAGDMLLLWGRLTWRKMCRKLLDMTFSSKTNTLVVRQRCGRPGGGVLLRYGSQLAPETFYRECDMQLFGPWGEIVSPSLSPATSNAGGCRLFINVAPHARIAIHALATNMGAGTEGANASYILIRDTHSLRTTAFHGQQVLYWESESSQAEMEFSEGFLKAQASLRGQYWTLQSWVPEMQDPQSWKGKEGT
- cleavage fragment after 2 h reaction with normal plasma at 37 C (SDS-PAGE, western blot with anti-GST antibody) (GST-Asp1459-Arg1668-H): did not give the fragment or was difficult to give the fragment
- cleavage fragment after 2 h reaction with normal plasma at 37 C (SDS-PAGE, western blot with anti-GST antibody) (GST-Asp1587-Arg1668-H): the expected fragment (indicated by the arrowheads in the figure) was clearly yielded
- cleavage fragment after 2 h reaction with normal plasma at 37 C (SDS-PAGE, western blot with anti-GST antibody) (GST-Asp1596-Arg1659-H): did not give the fragment or was difficult to give the fragment
- cleavage fragment after 2 h reaction with normal plasma at 37 C (SDS-PAGE, western blot with anti-GST antibody) (GST-Asp1596-Arg1668-H): the expected fragment (indicated by the arrowheads in the figure) was clearly yielded
- cleavage fragment after reaction with plasma of TTP patients and family members against normal plasma (SDS-PAGE, western blot with anti-GST antibody) (GST-Asp1596-Arg1668-H): When each of plasma samples from two patients was reacted with GST-Asp^1596Arg^1668H, there was not detected the fragment which is yielded by the reaction with normal plasma; with plasma of about one-half ADAMTS-13 activity the fragment was yielded at smaller amounts than with the normal plasma
- cleavage fragment after 2 h reaction with normal plasma at 37 C (SDS-PAGE, western blot with anti-GST antibody) (GST-Glu1554-Arg1668-H): a very faint band was produced at the expected position
